Results published in article PMC3708822.

What was measured:
GST-RT (HIV-1 (NL4-3)) = experiment: pull-down; 5 ug GST-tagged proteins on glutathione sepharose 4B beads incubated 1 hour at 4°C with normalized clarified bacterial lysates of 6His-IN in 20 mM HEPES-KOH pH 8.0, 5 mM DTT, 0.1% IGEPAL; washes with 200 mM NaCl, 0.5% IGEPAL; Western blot, densitometry relative to WT
GST-INI1 [1] = biological target: GST-INI1 (UniProt Q12824); experiment: pull-down; in vitro binding of His6-IN with GST-INI1; data not shown
GST-SAP18 [2] = biological target: GST-SAP18 (UniProt O00422); experiment: pull-down; 5 ug GST-tagged proteins on glutathione sepharose 4B beads incubated 1 hour at 4°C with normalized clarified bacterial lysates of 6His-IN in 20 mM HEPES-KOH pH 8.0, 5 mM DTT, 0.1% IGEPAL; washes with 200 mM NaCl, 0.5% IGEPAL; Western blot, densitometry relative to WT
GST-SAP18 [3] = biological target: GST-SAP18 (UniProt O00422); experiment: GST pull-down, Western blot quantitation; settings: 5μg of GST-tagged proteins were used for each pull-down reaction; parent: est. 1.0; read off a plot
GST-INI1 [4] = biological target: GST-INI1 (UniProt Q12824); experiment: pull-down; 5 ug GST-INI1 on glutathione sepharose 4B beads incubated 1 hour at 4°C with clarified 293 T whole cell lysates normalized for YFP-IN levels; Western blot, densitometry, binding relative to YFP-WT

GST-INI1, sequence (Q12824 whole entry): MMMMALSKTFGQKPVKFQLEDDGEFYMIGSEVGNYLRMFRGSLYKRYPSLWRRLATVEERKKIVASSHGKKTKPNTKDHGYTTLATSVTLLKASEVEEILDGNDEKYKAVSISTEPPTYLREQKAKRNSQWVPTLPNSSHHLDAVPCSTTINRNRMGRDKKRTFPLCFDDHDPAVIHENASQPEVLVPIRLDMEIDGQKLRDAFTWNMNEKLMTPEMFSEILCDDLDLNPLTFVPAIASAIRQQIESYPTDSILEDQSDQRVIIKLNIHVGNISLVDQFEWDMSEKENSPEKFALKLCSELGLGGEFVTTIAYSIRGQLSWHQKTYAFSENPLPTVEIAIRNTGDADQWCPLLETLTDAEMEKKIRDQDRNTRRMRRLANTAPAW
GST-SAP18, sequence (O00422 whole entry): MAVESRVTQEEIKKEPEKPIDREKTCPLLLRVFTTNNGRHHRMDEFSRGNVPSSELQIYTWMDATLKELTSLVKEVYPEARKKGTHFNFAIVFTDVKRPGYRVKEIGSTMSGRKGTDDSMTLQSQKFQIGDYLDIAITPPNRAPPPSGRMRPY

Substance	ratio to parent (GST-SAP18 [3])	% binding to INI1 relative to wild type (GST-INI1 [4]) [%]	other results
His6-tagged IN D202G (natural protein)			% RT binding compared to WT (GST-RT (HIV-1 (NL4-3))): 80%
His6-tagged IN K111E (natural protein)			% binding compared to His6-WT (GST-INI1 [1]): 60%
His6-tagged IN Q137R (natural protein)			% RT binding compared to WT (GST-RT (HIV-1 (NL4-3))): 45%; fold decrease in binding relative to WT (GST-SAP18 [2]): 4 fold
His6-tagged WT IN D202G	0.84		
His6-tagged WT IN K71R	1.1		
His6-tagged WT IN K111E	1.3		
His6-tagged WT IN S147G	1		
YFP-IN D202G (natural protein)		32	
YFP-IN H12Y (natural protein)		20.6	
YFP-IN K71R (natural protein)		46	
YFP-IN Q137R (natural protein)		10	
YFP-IN S147G (natural protein)		77	
YFP-WT IN (natural protein)		100	
